Test results reported in US20090035320A1 (MIE UNIVERSITY, published 2009).
Residue numbers refer to the chain shown, from its start.

T1: PCI-Flag (human, UniProt P05154 26-406, limits assumed)
T1 construct: Full-length human PCI ORF with a C-terminal Flag tag, secreted by CHO cells and purified from the culture supernatant; also called Flag-tagged PCI
T1 chain: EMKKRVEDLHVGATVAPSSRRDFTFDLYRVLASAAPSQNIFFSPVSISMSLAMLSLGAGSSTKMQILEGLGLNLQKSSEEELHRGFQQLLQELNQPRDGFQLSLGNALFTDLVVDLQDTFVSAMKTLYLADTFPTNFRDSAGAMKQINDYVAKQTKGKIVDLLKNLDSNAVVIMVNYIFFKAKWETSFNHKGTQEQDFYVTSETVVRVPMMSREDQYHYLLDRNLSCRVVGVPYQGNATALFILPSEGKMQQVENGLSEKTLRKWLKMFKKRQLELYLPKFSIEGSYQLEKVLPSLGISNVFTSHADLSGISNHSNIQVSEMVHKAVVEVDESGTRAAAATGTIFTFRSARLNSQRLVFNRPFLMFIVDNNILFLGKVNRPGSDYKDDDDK

B1: PC19G8 (antibody, IgG1, V domains shown)
VH: EVQLQQSGAELVKPGASVKLSCTASGFDIKDTFMHWVKQRPEQGLEWIGRIDYVNGNTKYDPKFQGKATITGDTSSNTAYLQLSSLTSEDTAVYYCARGGYDVREFAYWGQGTLVTVSA
VL: QIVLTQSPAIMSASPGEKVTITCSATSSLIYMHWFQQKPGSSPELWIYSTSNLASGVPARFSGSGSGTSYSLTISRMEAEDAATYYCQQRSSYPFTFGSGTKLEIK
notes: also called clone #19G8; anti-PCI neutralizing antibody
B2: PC39C6 (antibody, IgG1, V domains shown)
VH: EVQLQQSGAELVRPGALVKLSCKASGFNIKDYYIHWVKQRPEQGLEWIGRIDLEKGNIIYDPKFQGKDNITADTSSNTAYLQLSSLTSEDTAVYYCARGGYDVPSFAYWGQGTLVTVSA
VL: B1 VL with T26S, L29V, I30S, S41T, E44K
notes: Mouse hybridoma monoclonal, IgG1, purified on Protein G; also called anti-PCI neutralizing antibody
B3: PC23D8 (antibody, IgG2a, V domains shown)
VH: B1 VH
VL: B1 VL
notes: also called anti-PCI neutralizing antibody
B4: PC23A7 (antibody, IgG2a, V domains shown)
VH: B1 VH with K30R, Y53L, G56V, K63N, G66D, K67R, G72A, S84T
VL: B1 VL with S41T, E44K
notes: Mouse hybridoma monoclonal, IgG2a, purified on Protein G; also called anti-PCI neutralizing antibody
B5: PC31E2 (antibody, V domains shown)
VH: QVQLQQSGAELVKPGASVKMSCKAFGYTFTTYPIEWMKQNHGKSLEWIGKFHPDNDDTNYNEKFKGKAKLTVEKSSSTVYLELSRLTSDDSAVYYCARGHDYDYGMDYWGQGTSVTVSS
VL: DIVLTQSPASLAVSLGQRATISCKASQSVDYDGDSYLNWYQQKPGQPPKLLIYGASNLESGTPARFSGSGSGTDFTLDIHPVEEEDAATYYCQQSNEDPPTFGGGTKLEIT
notes: as for B3

Target: T1, PCI-Flag
Test: SPR (BIACORE 2000), PCI-Flag amine-coupled to CM5 chip, antibody injected
Procedure: PCI-Flag was diluted to 25 μg/ml with 10 mM sodium acetate (pH5.0), and then amine-coupled to a sensor chip CM5 (BIACORE; BR-1000-14) using an amine coupling kit (BIACORE; BR-1000-50) according to the method described in the kit. Approximately 3,000 RU of PCI-Flag was immobilized onto the CM5 chip by this treatment. The kinetic analyses described below were performed on BIACORE 2000 using the sensor chip. […] After the chip was equilibrated with HBS-EP buffer, 40 μl of the antibody solution at each concentration was injected at a flow rate of 20 μl/min. In the association phase, the antibody was injected over two minutes. Then, instead of the antibody, HBS-EP buffer was injected over two minutes in the dissociation phase. After the dissociation phase, 40 μl of 10 mM HCl and then 40 μl of 0.05% SDS were injected continuously to regenerate the sensor chip. The sensorgrams obtained by the procedure described above were superimposed, and the binding rate constant (ka), dissociation rate constant (kd), dissociation constant (KD), and maximal binding (Rmax) were computed using data analysis software (BIAevaluation, ver. 3.0).

| Kd | koff | kon | Binder |
| --- | --- | --- | --- |
| 0.126 nM | 2.13e-05 s⁻¹ | 168000 M⁻¹ s⁻¹ | B1 |
| 5.51 nM | 0.000489 s⁻¹ | 88800 M⁻¹ s⁻¹ | B2 |
| 0.293 nM | 6.59e-05 s⁻¹ | 225000 M⁻¹ s⁻¹ | B3 |
| 0.473 nM | 7.17e-05 s⁻¹ | 151000 M⁻¹ s⁻¹ | B4 |
| 1.79 nM | 0.000313 s⁻¹ | 175000 M⁻¹ s⁻¹ | B5 |
